Experimental data taken from publication PMC4565672.

The substances below were run against HERC2 (endogenous, HEK293 cells) [human (endogenous in HEK293)] (assay: co-immunoprecipitation (FLAG-IP) and Western blotting, band quantification). Settings: mean ± SE from five repeated experiments; parent: 1; read off a plot.

ratio to parent | Substance
1.4 | FLAG-tagged human LRRK2 (wild type) mutant R1398L [human] / HERC2 (endogenous, HEK293 cells) [human (endogenous in HEK293)] chain 1 R1398L
2.5 | FLAG-tagged human LRRK2 (wild type) mutant R1441G [human] / HERC2 (endogenous, HEK293 cells) [human (endogenous in HEK293)] chain 1 R1441G
3.4 | FLAG-tagged human LRRK2 (wild type) mutant T1348N [human] / HERC2 (endogenous, HEK293 cells) [human (endogenous in HEK293)] chain 1 T1348N

The substances below were run against NEURL4 (endogenous, HEK293 cells) [human (endogenous in HEK293)] in the same assay as above. Settings: mean ± SE from five repeated experiments; parent: 1; read off a plot.

ratio to parent | Substance
1.8 | FLAG-tagged human LRRK2 (wild type) mutant R1398L [human] / NEURL4 (endogenous, HEK293 cells) [human (endogenous in HEK293)] chain 1 R1398L
3.2 | FLAG-tagged human LRRK2 (wild type) mutant R1441G [human] / NEURL4 (endogenous, HEK293 cells) [human (endogenous in HEK293)] chain 1 R1441G
4.3 | FLAG-tagged human LRRK2 (wild type) mutant T1348N [human] / NEURL4 (endogenous, HEK293 cells) [human (endogenous in HEK293)] chain 1 T1348N
